This assay concerns the target GDP-L-galactose phosphorylase 1 (GGP1) with His6, expressed in E. coli (Solanum lycopersicum (tomato)).

Here are results for one substance from doi:10.1101/2022.12.12.520143.

The substance “PAS/LOV protein (PLP) with His6, expressed in tobacco (natural protein)” came in with an inhibition of GGP activity by PLP incubated 2 h in darkness before mixing of 86%.
